This note sets out measurements from patent US20050043228A1.

Experiment [1] deals with protamine (from protamine sulfate). Nature of the experiment: share of Val^8-GLP-1 in particles (supernatant versus total); 2.0 mg Val^8-GLP-1 + 0.38 mg protamine, ratio 5.3.
The target of a further experiment is poly-L-arginine. The experiment is described as follows: Val^8-GLP-1 in the supernatant versus total, after mixing with poly-L-arginine, 25 C, 24 h.
Experiment [2] concerns the target protamine (from protamine sulfate). The experiment is described as follows: share of Val^8-GLP-1 in particles (supernatant versus total); 2.0 mg Val^8-GLP-1 + 0.33 mg protamine, ratio 6.1.
Experiment [3] shares this target. The experiment is described as follows: share of Val^8-GLP-1 in particles (supernatant versus total); 2.0 mg Val^8-GLP-1 + 0.44 mg protamine, ratio 4.5.
Experiment [4] shares this target. Nature of the experiment: share of Val^8-GLP-1 in particles (supernatant versus total); 2.0 mg Val^8-GLP-1 + 0.27 mg protamine, ratio 7.4.
Experiment [5] has the same target. Nature of the experiment: share of Val^8-GLP-1 in particles (supernatant versus total); 2.0 mg Val^8-GLP-1 + 0.16 mg protamine, ratio 12.5.
The target is the same in experiment [6]. The experiment is described as follows: Val^8-GLP-1 in the supernatant versus total, after mixing with protamine, 25 C, 24 h.
The target is the same in experiment [7]. Nature of the experiment: share of Val^8-GLP-1 in particles (supernatant versus total); 2.0 mg Val^8-GLP-1 + 0.55 mg protamine, ratio 3.6.
The target is the same in experiment [8]. The experiment is described as follows: share of Val^8-GLP-1 in particles (supernatant versus total); 2.0 mg Val^8-GLP-1 + 0.49 mg protamine, ratio 4.1.
For experiment [9] the target is unchanged. The experiment is described as follows: share of Val^8-GLP-1 in particles (supernatant versus total); 2.0 mg Val^8-GLP-1 + 0.22 mg protamine, ratio 9.1.

B1: Val^8-GLP-1(7-37)OH (peptide)
peptide: HVEGTFTSDVSSYLEGQAAKEFIAWLVKGRG
With B1, the Yield % was 98.3% in experiment [1]; 94.5% in experiment [2]; 99.5% in [3]; 84.3% in experiment [4]; 54.6% in [5]; 99.4% in experiment [7]. For the same molecule, the Yield % in experiment [8] was 99.7%; in experiment [9], 73.2%. The yield (share of Val^8-GLP-1 in the particles) with poly-L-arginine was 90%; in experiment [6] it was 90 to 95%.
